Measurements as given in the supplement of paper PMC12764529.
± gives the half width of the 95% confidence interval.

assay: folding stability dG unfold from chymotrypsin proteolysis; higher = more stable
Procedure, shortened: (§1)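 How resistant each design was to proteolysis was captured as K50, inferred by Bayesian fitting of sequencing counts. Unfolding free energy was then derived relative to a sequence-predicted unfolded-state K50 and a shared folded-state K50, per protease or combined. Digestion used trypsin and chymotrypsin at 11 threefold-diluted concentrations plus a no-protease condition, on mini-proteins under 80 residues without cysteine in a PA-tagged cDNA display construct. Designs were kept only when AlphaFold2 dimer inter-PAE was above 15.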

Sequence	folding stability dG unfold
SAGGSAGGMKLTLRIEAPREEVERLAKEFEAQGIKVTVKPRPDGRVELTLEIDLPDTDKSLFDPSAGGSAGG [r6_8_TrMRF]	2.67 ± 0.057 kcal/mol
PPTSPEFRKALENIKKVDIEIEPYPNDGMVRMSIELKFPDKPVEIDIHYQYDPDGKINGMWARLDGKWIPIS [r1_274_TrROS]	1.99 ± 0.079 kcal/mol
MTVTVPPDGTVTITLTDPSGNTYTFTIPVTDPAELRARLEEAIRELFPEFEDIPVRVVAVDGPAVVVEVPLS [r1_389_JUSTAS]	3.12 ± 0.036 kcal/mol
SAGGSAGGSAGGGVKYRVLLPKDVNPEKAAELLKPYGVKVVSIEEVEEGFYLIEVEKPESAGGSAGGSAGGS [r10_591_TrMRF]	1.59 ± 0.13 kcal/mol
EKYIVKIKITVRRKVETETLPDGSKKTRYETKTLEIEIEVSLEELKKLLEELNLPEDEITSVEIEVYPEEES [r1_351_TrROS_Hall]	4.58 ± 0.32 kcal/mol
SAGGSAMSPEEVEEKIKEIAKKLGVEIEVKVEISPEGGIKITVKVNDKFDINEIKKGIEEALGIKLSAGGSA [r15_807_JUSTAS]	2.65 ± 0.16 kcal/mol
SAGGPKIKIEAFPDGTVKITIELPDGVTIVIELKFDPETGTVHAKITLLPKDKPVTFEFTFKIPPDASAGGS [r16_230_TrMRF]	4.34 ± 0.11 kcal/mol
SAGGSAGGSAGGMTVVERTIEVEPDAKVIPLNLPGSNISATVLEYDPETGTLKVKIYVKESAGGSAGGSAGG [r17_198_JUSTAS]	1.06 ± 0.12 kcal/mol
SAGGAVVTPETEGDRTFVTTTDPESGSRTVTVTTYDPTTNTATTTTYFVPPDGVPTRVATTTTPLPPTSAGG [r13_768_JUSTAS]	1.49 ± 0.097 kcal/mol
SAGSYSVTADVTVHPDGTVDVTLTITTNGEDGTTETSTVLPLTLDLPPGTAVTVTVDPNNGTVTVTVEASAG [r5_179_JUSTAS]	4.14 ± 0.058 kcal/mol
SAEVYEFGNAVVVVTTSPDGTVRVYVFNPETGEVTEIEIHPDTPGEYKVRPLGNGEVKEATVPVSDILPVSA [r9_1071_TrMRF]	1.42 ± 0.2 kcal/mol
SAMEVKIEKVEVKDGTVRITVTVKVSEEQLEKVKELAEKLKEKGYEVKVVKVEKLEDGTIKVEIEVKPKSAG [r14_354_TrROS_Hall]	2.36 ± 0.17 kcal/mol
SAGGSAGGSAGMEPIRVTVTTQDTATGTTTTTTVTVPTDVPVEAVLAALDPALVTAVTVESAGGSAGGSAGG [r11_386_JUSTAS]	-0.172 ± 0.072 kcal/mol
SAGGSAGGSAGIPLGPDGGLIVTEGPDGPVEERLFASPEEARRWIEEHLPEGWRVVFRPLSAGGSAGGSAGG [r11_983_TrMRF]	1.6 ± 0.13 kcal/mol
SMPAEMSPEEVREAVRALVEEALAANPGEPVTVPIEEIRAALPGYSPEVLREVLGLTEEEIAAGPVTLRLSA [r9_525_JUSTAS]	-0.45 ± 0.35 kcal/mol
SAGGSAGGSKAKIEVLEVFPDYIVYKIETENPVIAVIVPLPNGKVKIFVFNPNGEPIAEFELGSAGGSAGGS [r12_1061_TrMRF]	3.88 ± 0.062 kcal/mol
SAGGSAGGSAGPTVASVEVLEYDPETGYLTVRIYIPDNGEWVDVKAPVGTAEEIVKAAEKSAGGSAGGSAGG [r17_111_TrMRF]	1.49 ± 0.048 kcal/mol
SASPWIQKLAEEIADELAKENGWEEVKFTVTLPIRMPMYRYDPNGKKEPHDMWMWIKFEVTARVPPGDPSAG [r14_232_TrROS]	2.01 ± 0.18 kcal/mol
SWYIIRIEIKIRNPKDGKSFDIEIMIHAPVEEAKEIAKEIASMFPGMRVEVKITEVMPMPPMTPEQLEKMSA [r9_421_TrROS]	3.721 ± 0.027 kcal/mol
SYLPESVPYDLVELTVVAKGKSPEYLEKKIKEAFKDVKIEPFYDPEKKLVTFKIVFPNKETAEKFKELVSSA [r9_764_TrMRF]	2.28 ± 0.041 kcal/mol
SAGTLTLELEVEVDGVLVRVRVEVRPGEEVEVRVEVEVRELPPEPEVEEEEKVELSEEDLERLRRLAEESAG [r5_958_TrROS_Hall]	3.4 ± 0.086 kcal/mol

assay: folding stability dG unfold (combined trypsin and chymotrypsin); higher = more stable
Procedure, shortened: as §1

Sequence	folding stability dG unfold
SAGGSMTFKAEVTPLDTFPLFDANGKPVAEVKVYTATIEFPDGSRVEIRGVEVGDELYILEIRPLDSAGGSA [r2_158_TrMRF]	2.16 ± 0.13 kcal/mol
SAEEAAKNFKPIRIRLRDPRGRLYEVERIELTPDGRLLITLRLPNETRTYLIEPDHPFPLPPDLIIEVEGSA [r9_993_TrMRF]	3.34 ± 0.08 kcal/mol
SAGGLEEKILEAVKNMSPEEPVVEREVELPDGKLKVTVTRDGLPYTVTITRTNPDGTTTTTTTTILLSAGGS [r16_642_JUSTAS]	2.34 ± 0.12 kcal/mol
SAGGMPIKSKKEAEEFIKKGGAKYLSKTKVKVKGEEKEKEFEVYEFVFKDPKTNKPILVVVPKEYIGSAGGS [r16_271_TrMRF]	0.886 ± 0.23 kcal/mol
SAGGSAGGFKIPPGKTIMIQYPDGWMWRIKVKDGNTHMFKSPEEIEKLLNKPGFEIEIEWFPLDSAGGSAGG [r6_433_TrROS]	1.67 ± 0.19 kcal/mol
SAGGSNFKPLEAEIYRNPDGKDVVQIMITFPDPNGKPFTVNIWIYPDGKIKISVYYNGKKEEIEIPSAGGSA [r2_182_TrROS]	2.96 ± 0.18 kcal/mol
SAGGSAGGSAGPEVIEIKNPKTGKTYRIVRNKDGKLLIYNEATGKVAVFKDGKIELVPAPSAGGSAGGSAGG [r17_476_TrROS_Hall]	1.05 ± 0.16 kcal/mol
SAPNIEIDYNKDNGMITIRLPGTGVEYMIPMPDGQLMAIDIEVKPDPDGKRKISIEIYFPDGKEHEFEISAG [r14_675_TrROS]	2.3 ± 0.39 kcal/mol
SAGGSAGGSPPDFVIQPEVEHTRDPENGKHEATVKIEIMDGRPIEIPFKSPEDAEDAIKELINSAGGSAGGS [r12_389_TrROS]	0.829 ± 0.13 kcal/mol
SAGGSAGGSAGGKNKYYVRVKIKNPNGRTRKINFPFDDPDQIKEQAQKEGWKIDEVEPVSAGGSAGGSAGGS [r10_882_TrROS]	-0.121 ± 0.18 kcal/mol
SAGPPKTRTVMFPPEDIPKILEELKKLPPDITIHFPDPDPGNWFMIEVTDDEIKIENPGNGEERTIPISAGG [r19_154_TrROS]	0.0412 ± 0.16 kcal/mol
SAGGSAGGSAGGGTVTLEIELKVKPGEKIKDLATGEEFEVKEGETVRIRITLPLPPAPEESAGGSAGGSAGG [r7_234_TrROS_Hall]	1.2 ± 0.17 kcal/mol
SALIETAEELARELGVEAELVEIEEGEDVALLRIRLRVDGVPYYFLVRIERPGEDPRIFRVEILEVRPESAG [r14_387_TrMRF]	4.066 ± 0.031 kcal/mol
SAGGSAGGMRLVVEDFDEEEMEEVERRVREFAEEHDVEVDIYRRRRPDGRVVLVVEIRPKEDLPSAGGSAGG [r6_906_TrMRF]	2.95 ± 0.052 kcal/mol
SIIIQFDNPEEAKENAEDFINEFQDEFGPGQKIPITIHDPGGDPATFPIEIEPPPPPVEYDEENGKLKPDSA [r9_596_TrROS]	1.51 ± 0.43 kcal/mol
SAGGSAGGGDEVKTFKAKVKLVSVDPETGEQLVLAEVPDGKPILVKVPKSFPLKEDEIVEFELSSAGGSAGG [r6_68_TrMRF]	1.3 ± 0.059 kcal/mol
SAMELSPEERAELLIEAVRRKLEEARKKGIPNKKVKVTIVLSEEEREALAKRIEEELKEEGYEVEIVPESAG [r14_908_TrROS_Hall]	2.29 ± 0.17 kcal/mol
SAGGMKIKIEVIDPDGKKRVIEIDASTPEEIKAALDALPPGAVVRIVVPSPELREALKEAGVDEVVELSAGG [r13_476_TrROS_Hall]	3.87 ± 0.2 kcal/mol
SAGGSAGGSPSVLDQVKRMIQDRIQERFGLPPGYTVQVTIDVEIDDGGIRIKKIKAEIQPPDNSAGGSAGGS [r12_481_TrROS]	2.37 ± 0.17 kcal/mol
SAGGSAGGSAGGSGLYLRLFDPGTGNVVAEVRVEIAPDGSLIAEARVADVPPVEDPEKASAGGSAGGSAGGS [r4_178_TrMRF]	1.85 ± 0.17 kcal/mol
SMKKNYKIKIEIIDIKIYNKNIPKNKPKYITIKAKITIYYKNKPYKYTIEIKYKIYNGKIYIIGSKIKPESA [r9_270_TrMRF]	3.66 ± 0.11 kcal/mol

Sequence	folding stability dG unfold
SAGGSAGGMKLTLRIEAPREEVERLAKEFEAQGIKVTVKPRPDGRVELTLEIDLPDTDKSLFDPSAGGSAGG [r6_8_TrMRF]	2.55 ± 0.12 kcal/mol
PPTSPEFRKALENIKKVDIEIEPYPNDGMVRMSIELKFPDKPVEIDIHYQYDPDGKINGMWARLDGKWIPIS [r1_274_TrROS]	1.85 ± 0.2 kcal/mol
MTVTVPPDGTVTITLTDPSGNTYTFTIPVTDPAELRARLEEAIRELFPEFEDIPVRVVAVDGPAVVVEVPLS [r1_389_JUSTAS]	3.1 ± 0.086 kcal/mol
SAGGSAGGSAGGGVKYRVLLPKDVNPEKAAELLKPYGVKVVSIEEVEEGFYLIEVEKPESAGGSAGGSAGGS [r10_591_TrMRF]	1.49 ± 0.13 kcal/mol
EKYIVKIKITVRRKVETETLPDGSKKTRYETKTLEIEIEVSLEELKKLLEELNLPEDEITSVEIEVYPEEES [r1_351_TrROS_Hall]	4.31 ± 0.73 kcal/mol
SAGGSAMSPEEVEEKIKEIAKKLGVEIEVKVEISPEGGIKITVKVNDKFDINEIKKGIEEALGIKLSAGGSA [r15_807_JUSTAS]	3.94 ± 0.45 kcal/mol
SAGGPKIKIEAFPDGTVKITIELPDGVTIVIELKFDPETGTVHAKITLLPKDKPVTFEFTFKIPPDASAGGS [r16_230_TrMRF]	4.29 ± 0.41 kcal/mol
SAGGSAGGSAGGMTVVERTIEVEPDAKVIPLNLPGSNISATVLEYDPETGTLKVKIYVKESAGGSAGGSAGG [r17_198_JUSTAS]	0.945 ± 0.11 kcal/mol
SAGGAVVTPETEGDRTFVTTTDPESGSRTVTVTTYDPTTNTATTTTYFVPPDGVPTRVATTTTPLPPTSAGG [r13_768_JUSTAS]	1.44 ± 0.13 kcal/mol
SAGSYSVTADVTVHPDGTVDVTLTITTNGEDGTTETSTVLPLTLDLPPGTAVTVTVDPNNGTVTVTVEASAG [r5_179_JUSTAS]	3.89 ± 0.079 kcal/mol
SAEVYEFGNAVVVVTTSPDGTVRVYVFNPETGEVTEIEIHPDTPGEYKVRPLGNGEVKEATVPVSDILPVSA [r9_1071_TrMRF]	1.19 ± 0.23 kcal/mol
SAMEVKIEKVEVKDGTVRITVTVKVSEEQLEKVKELAEKLKEKGYEVKVVKVEKLEDGTIKVEIEVKPKSAG [r14_354_TrROS_Hall]	2.66 ± 0.92 kcal/mol
SAGGSAGGSAGMEPIRVTVTTQDTATGTTTTTTVTVPTDVPVEAVLAALDPALVTAVTVESAGGSAGGSAGG [r11_386_JUSTAS]	0.808 ± 0.11 kcal/mol
SAGGSAGGSAGIPLGPDGGLIVTEGPDGPVEERLFASPEEARRWIEEHLPEGWRVVFRPLSAGGSAGGSAGG [r11_983_TrMRF]	1.47 ± 0.058 kcal/mol
SMPAEMSPEEVREAVRALVEEALAANPGEPVTVPIEEIRAALPGYSPEVLREVLGLTEEEIAAGPVTLRLSA [r9_525_JUSTAS]	0.483 ± 0.12 kcal/mol
SAGGSAGGSKAKIEVLEVFPDYIVYKIETENPVIAVIVPLPNGKVKIFVFNPNGEPIAEFELGSAGGSAGGS [r12_1061_TrMRF]	3.4 ± 0.17 kcal/mol
SAGGSAGGSAGPTVASVEVLEYDPETGYLTVRIYIPDNGEWVDVKAPVGTAEEIVKAAEKSAGGSAGGSAGG [r17_111_TrMRF]	1.16 ± 0.14 kcal/mol
SASPWIQKLAEEIADELAKENGWEEVKFTVTLPIRMPMYRYDPNGKKEPHDMWMWIKFEVTARVPPGDPSAG [r14_232_TrROS]	2.14 ± 0.24 kcal/mol
SWYIIRIEIKIRNPKDGKSFDIEIMIHAPVEEAKEIAKEIASMFPGMRVEVKITEVMPMPPMTPEQLEKMSA [r9_421_TrROS]	3.25 ± 0.076 kcal/mol
SYLPESVPYDLVELTVVAKGKSPEYLEKKIKEAFKDVKIEPFYDPEKKLVTFKIVFPNKETAEKFKELVSSA [r9_764_TrMRF]	2.16 ± 0.07 kcal/mol
SAGTLTLELEVEVDGVLVRVRVEVRPGEEVEVRVEVEVRELPPEPEVEEEEKVELSEEDLERLRRLAEESAG [r5_958_TrROS_Hall]	3.05 ± 0.1 kcal/mol
